Assay results reported in the Immune Epitope Database (IEDB).

Experiments:
HLA-A*32:01 = test: IEDB peptide-MHC binding, purified MHC/competitive/radioactivity; filed as Kd, often an IC50 or EC50 that approximates it; ≥ and ≤ were set here for values at or beyond the usual limits of such assays
HLA-A*03:01 = test: IEDB peptide-MHC binding, purified MHC/direct/fluorescence; filed as Kd, often an IC50 or EC50 that approximates it; ≥ and ≤ were set here for values at or beyond the usual limits of such assays
HLA-A*31:01 = test: as above; conditions: source organism: Entamoeba histolytica HM-1:IMSS
HLA-A*01:01 [1] = test: IEDB peptide-MHC binding, purified MHC/competitive/radioactivity; filed as Kd, often an IC50 or EC50 that approximates it; ≥ and ≤ were set here for values at or beyond the usual limits of such assays
HLA-A*30:02 = test: as above
HLA-A*24:02 = test: as above
HLA-A*23:01 = test: as above
HLA-A*26:01 = test: as above
HLA-A*29:02 = test: as above
HLA-A*69:01 = test: IEDB peptide-MHC binding, purified MHC/direct/fluorescence; filed as Kd, often an IC50 or EC50 that approximates it; ≥ and ≤ were set here for values at or beyond the usual limits of such assays
HLA-A*02:01 [2] = test: as above
HLA-A*02:01 [3] = test: IEDB peptide-MHC binding, purified MHC/competitive/fluorescence; filed as Kd, often an IC50 or EC50 that approximates it; ≥ and ≤ were set here for values at or beyond the usual limits of such assays
HLA-B*08:01 = test: IEDB peptide-MHC binding, purified MHC/competitive/radioactivity; filed as Kd, often an IC50 or EC50 that approximates it; ≥ and ≤ were set here for values at or beyond the usual limits of such assays
HLA-A*01:01 [4] = test: IEDB peptide-MHC binding, purified MHC/direct/fluorescence; filed as Kd, often an IC50 or EC50 that approximates it; ≥ and ≤ were set here for values at or beyond the usual limits of such assays; conditions: source organism: Homo sapiens
HLA-B*27:05 = test: as above; conditions: source organism: Homo sapiens
HLA-A*11:01 = test: as above; conditions: source organism: Homo sapiens
[5] = source organism: Vaccinia virus WR
[6] = source organism: SARS coronavirus Tor2
[7] = source organism: Pseudomonas aeruginosa
[8] = source organism: Dengue virus 4 Philippines/H241/1956
[9] = source organism: Dengue virus 2 Jamaica/1409/1983
[10] = source organism: Giardia lamblia ATCC 50803
[11] = source organism: Mammarenavirus brazilense
[12] = source organism: Lassa virus Josiah

Sequence | Kd (HLA-A*01:01 [1]; [6]) [nM] | Kd (HLA-A*30:02; [6]) [nM] | Kd (HLA-A*24:02; [6]) [nM] | Kd (HLA-A*23:01; [6]) [nM] | Kd (HLA-A*26:01; [6]) [nM] | Kd (HLA-A*29:02; [6]) [nM] | also measured
ALNHLVLSL |  |  |  |  |  |  | Kd (HLA-A*32:01; [5]): 41.4 nM
ANKWYFAPR |  |  |  |  |  |  | Kd (HLA-A*03:01; source organism: Entamoeba histolytica HM-1:IMSS): ≥ 20000 nM; Kd (HLA-A*31:01): 1.4 nM
DEEGNLLDSY | ≥ 92600 | 8980 | ≥ 70300 | ≥ 58100 | ≥ 71600 | 7260 | 
DMYDQQLSV |  |  |  |  |  |  | Kd (HLA-A*69:01; [7]): 32 nM; Kd (HLA-A*02:01 [2]; [7]): 262 nM
DSKEGFFTY | 200 | 237 | ≥ 77600 | ≥ 77800 | 993 | 663 | 
DYAEISFML | ≥ 22500 | 440 | ≥ 105000 | ≥ 90700 | ≥ 68900 | 100 | 
EDMLKVWNRV |  |  |  |  |  |  | Kd (HLA-A*32:01; [8]): 19600 nM
EHSWNADLY | ≥ 69400 | 45.1 | ≥ 77600 | ≥ 77800 | 4410 | 295 | 
EIQLKIDKL |  |  |  |  |  |  | Kd (HLA-A*02:01 [3]; source organism: Variola virus): 3590 nM
ELINKFVEL |  |  |  |  |  |  | Kd (HLA-B*08:01; [5]): 1040 nM
ELKEKSVKF |  |  |  |  |  |  | Kd (HLA-B*08:01; [5]): 3.19 nM
EQMQRKHGGM |  |  |  |  |  |  | Kd (HLA-B*08:01; source organism: Dengue virus 1 Brazil/97-11/1997): 86 nM
ETNDLVTNV |  |  |  |  |  |  | Kd (HLA-A*02:01 [3]; source organism: Variola virus): 3240 nM
EWSVATFYLF | 1160 | 1730 | 27.2 | 0.0328 |  | 17.4 | 
FKGKTVWFVP |  |  |  |  |  |  | Kd (HLA-A*32:01; [9]): ≥ 69900 nM
FLIGVYQQY |  |  |  |  |  |  | Kd (HLA-A*69:01; [10]): ≥ 20000 nM; Kd (HLA-A*02:01 [2]; [10]): ≥ 20000 nM
FLMGFNRDV |  |  |  |  |  |  | Kd (HLA-A*69:01; source organism: Mycobacterium tuberculosis): 1760 nM

Sequence | Kd (HLA-A*01:01 [1]; [6]) [nM] | Kd (HLA-A*30:02; [6]) [nM] | Kd (HLA-A*24:02; [6]) [nM] | Kd (HLA-A*23:01; [6]) [nM] | Kd (HLA-A*26:01; [6]) [nM] | Kd (HLA-A*29:02; [6]) [nM] | also measured
FTFKRTSGSSV |  |  |  |  |  |  | Kd (HLA-A*02:01 [3]; source organism: Influenza A virus H3N2): 930 nM
FYFTNDVSF | 17100 | ≥ 96800 | 2800 | 1490 | ≥ 22300 | 413 | 
GFELTSMKY | 1750 | 1840 | ≥ 77600 | ≥ 77800 | ≥ 81500 | 132 | 
GRIDKPILK |  |  |  |  |  |  | Kd (HLA-A*01:01 [4]): ≥ 53500 nM; Kd (HLA-A*03:01; source organism: Homo sapiens): 13500 nM; Kd (HLA-B*27:05): 790 nM; Kd (HLA-A*11:01): 8150 nM
GSDDIRRLV |  |  |  |  |  |  | Kd (HLA-A*01:01 [1]; [11]): ≥ 44500 nM; Kd (HLA-A*30:02; [11]): ≥ 76900 nM; Kd (HLA-A*24:02; [11]): ≥ 77500 nM; Kd (HLA-A*23:01; [11]): ≥ 77700 nM; Kd (HLA-A*26:01; [11]): ≥ 77900 nM; Kd (HLA-A*29:02; [11]): ≥ 78900 nM
HHANEYRQY | ≥ 78100 | 6960 | ≥ 33400 | ≥ 77800 | ≥ 102000 | 12700 | 
HMVVKSALL | 15100 | 954 | 12200 | 13900 | 13100 | 511 | 
HSYGIDLKSY | 80.6 | 7.12 | ≥ 56400 | ≥ 70000 | 451 | 29.2 | 
ICLSGDGWPY |  |  |  |  |  |  | Kd (HLA-A*01:01 [1]; [12]): 6320 nM; Kd (HLA-A*30:02; [12]): 678 nM; Kd (HLA-A*24:02; [12]): ≥ 70300 nM; Kd (HLA-A*23:01; [12]): ≥ 70000 nM; Kd (HLA-A*26:01; [12]): ≥ 69700 nM; Kd (HLA-A*29:02; [12]): 371 nM
IDNVHTWTEQ |  |  |  |  |  |  | Kd (HLA-A*32:01; [8]): 9850 nM
IFFASFYYIW | 1270 | 12100 | 24.3 | 0.529 | 1370 | 31.6 | 
IGMNSRSTSL |  |  |  |  |  |  | Kd (HLA-B*08:01; [9]): 107 nM
IIIPFIAYFV |  |  |  |  |  |  | Kd (HLA-A*02:01 [3]; source organism: Variola virus): 50.5 nM
ILHLILWIL |  |  |  |  |  |  | Kd (HLA-A*02:01 [3]; source organism: Influenza A virus (A/Memphis/1/1978(H1N1))): 6000 nM
ILSDDAVVCY | 10.2 | 2100 | ≥ 70300 | ≥ 70000 | ≥ 38800 | 320 | 
KLGNLLLLI |  |  |  |  |  |  | Kd (HLA-A*32:01; [5]): 0.716 nM
KLLRRPFSL |  |  |  |  |  |  | Kd (HLA-B*08:01; [5]): 0.362 nM
